Assay results from patent publication US6071709A, “Nerve growth factor/receptor complex” (The United States of America as represented by the …, priority 1992, dated 2000).

Experiments:
gp140^prototrk = target: T1, gp140^prototrk (Rattus norvegicus, UniProt P35739); experiment: trk tyrosine phosphorylation in PC12 cells treated with NGF (32P labelling / Ptyr immunoblot of trk immunoprecipitates); type: cell-based
T1 construct: tyrosine phosphorylation in response to NGF addition to PC12 cells; endogenous in cells; host or cells: PC12 cells
T1 sequence (P35739 33-799): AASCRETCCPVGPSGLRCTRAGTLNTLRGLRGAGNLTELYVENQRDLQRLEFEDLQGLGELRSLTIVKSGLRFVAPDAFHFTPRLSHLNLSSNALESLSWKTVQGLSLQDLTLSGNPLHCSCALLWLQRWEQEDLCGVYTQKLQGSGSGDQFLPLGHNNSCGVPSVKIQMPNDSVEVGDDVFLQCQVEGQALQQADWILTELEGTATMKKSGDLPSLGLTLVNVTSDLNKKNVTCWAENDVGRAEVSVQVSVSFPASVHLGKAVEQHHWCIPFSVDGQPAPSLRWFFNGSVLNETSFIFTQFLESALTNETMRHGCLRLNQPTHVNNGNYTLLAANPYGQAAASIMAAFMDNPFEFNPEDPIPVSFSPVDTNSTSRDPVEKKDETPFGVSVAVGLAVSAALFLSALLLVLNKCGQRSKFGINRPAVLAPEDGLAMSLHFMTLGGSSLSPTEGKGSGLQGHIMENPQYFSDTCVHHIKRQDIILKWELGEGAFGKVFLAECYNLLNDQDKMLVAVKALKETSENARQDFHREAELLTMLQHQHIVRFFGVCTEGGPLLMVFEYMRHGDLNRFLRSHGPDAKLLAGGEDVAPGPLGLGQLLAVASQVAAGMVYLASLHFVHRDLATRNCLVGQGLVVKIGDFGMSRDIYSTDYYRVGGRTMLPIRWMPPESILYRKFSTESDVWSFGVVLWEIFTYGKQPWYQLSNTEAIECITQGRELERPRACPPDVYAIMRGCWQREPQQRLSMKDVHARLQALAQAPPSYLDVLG
Method: FIGS. 1A-C show the tyrosine phosphorylation of gp140trk in PC12 cells and trk-expressing NIH-3T3 cells treated with NGF. FIG. 1A, gp140trk immunoprecipitated from PC12 cells or trk-expressing 3T3 cells labeled with ^32 P-orthophosphate. Immunoprecipitates were prepared with rabbit anti-trk antisera 43-4 (D. Martin-Zanca et al., Mol Cell. Biol. 9:24-33 (1989)) from lysates prepared from 3T3 cells expressing the rat trk gene (trk 3T3) (lane 1) or PC12 cells treated for 5 min with 100 ng/ml NGF at 37° C. (lanes 2 and 4) or mock treated (lane 3). The immunoprecipitate shown in lane 2 was prepared in the presence of the peptide used to generate the rabbit 43-4 trk antibody (Martin-Zanca et al., (1989)). Shown in FIG. 1B is the phosphoamino acid analysis of trk proteins phosphorylated in vitro in p140trk immunoprecipitates from NGF treated PC12 cells in vivo from NGF treated (+) or untreated (-) PC12 cells, or in vivo from trk 3T3 cells. The positions of phosphoserine (S), phosphothreonine (T), and phosphotyrosine (Y) are indicated. FIG. 1C, trk proteins from trk 3T3 cells phosphorylated […]. In lanes 1-3, gp140trk immunoprecipitates were probed with P-tyr antibodies. In lanes 4-6, gp140trk proteins were phosphorylated in vitro in kinase assays. Cells were treated with suramin (lanes 2 and 5) or with 500 ng/ml NGF for 10 min following suramin treatment. The band migrating at 110 kDa is a glycosylation precursor of gp140^prototrk (Martin-Zanca et al., (1989)). The band at the bottom of the figure is IgG. Molecular weight markers in kDa are indicated.
rtrk 3T3 cells were generated by CaPO4 mediated transfection of a rat trk cDNA into NIH-3T3 cells. Rat trk cDNAs were obtained from an embryonic rat DRG cDNA library. The longest trk cDNA obtained (2.4 kbp) was missing approximately 150 bp of the coding region as compared to available mouse and human trk sequence. The missing bases plus minimal (~50 bp) 5' flanking non-coding sequences were replaced from mouse first coding exon sequences and the reconstructed gene was placed downstream of an MSV-LTR. PC12 cells or rtrk 3T3 cells (2×10^7) were labeled with ^32 P orthophosphate (1 mCi.ml in 4 ml) for 4 hr at 37° C. Cells were treated with NGF for the indicated times, washed, lysed in buffer containing 1% NP40, and the lysates immunoprecipitated with trk antibody 43-4 (D. R. Kaplan et al., Cell 61:125-133 (1990)) and electrophoresed on 7.5% SDS-PAGE gels as previously described (Kaplan et al., (1990)). For b, the phosphorylated trk bands were eluted from the gel and phosphoamino acid analysis performed as described (B. M. Sefton et al., J. Cell 24:165-174 (1981)). gp140trk protein from NGF treated PC12 cells was phosphorylated in vitro. For c, rtrk 3T3 cells were treated with 1 mM suramin in Dulbecco's Modified Eagle Medium (DMEM) for 2 h or mock treated. Following extensive washing of the cells with DMEM, NGF was added for the time indicated. Cells were lysed and the lysates were immunoprecipitated with trk antibody. Immunoprecipitates were either subjected to immunoblot analysis with the phosphotyrosine (Ptyr) monoclonal antibody 4G10 (Lanes 1-3), or were analyzed in kinase assays. (D. K. Morrison, et al. Cell 58:649-657 (1989) and Kaplan et al., (1990)). Similar amounts of trk protein were present in each lane.
FIGS. 2A-C. Time course, growth factor specificity, and dose response of trk tyrosine phosphorylation in PC12 cells. A, Time course of trk tyrosine phosphorylation. Cells (2×10^7) were treated with 50 ng/ml NGF at 37° C. B, Effects of growth and differentiation factors on trk tyrosine phosphorylation. Cells were treated with 100 ng/ml NGF, 100 ng/ml basic fibroblast growth factor (FGF) (Boehringer Mannheim Biochemicals), 100 ng/ml epidermal growth factor (EGF) (Upstate Biotechnology, Inc.), 100 nM insulin (Sigma), or 1 μg/ml phorbal 12-myristate […] (PMA) (Sigma) for 15 min. at 37° C. C, dose response of trk tyrosine phosphorylation. […]

p140^prototrk = p140^prototrk (Rattus norvegicus, UniProt P35739); experiment: trk tyrosine phosphorylation in rtrk-3T3 cells, suramin treatment followed by NGF (in vivo and immune complex kinase assays); type: cell-based; settings: suramin treated rtrk-3T3 cells, NGF (500 ng/ml) added for 10 min
Sequence of p140^prototrk (P35739 33-799): as above
Method: rtrk 3T3 cells were generated by CaPO4 mediated transfection of a rat trk cDNA into NIH-3T3 cells. […] PC12 cells or rtrk 3T3 cells (2×10^7) were labeled with ^32 P orthophosphate (1 mCi.ml in 4 ml) for 4 hr at 37° C. […] For c, rtrk 3T3 cells were treated with 1 mM suramin in Dulbecco's Modified Eagle Medium (DMEM) for 2 h or mock treated. Following extensive washing of the cells with DMEM, NGF was added for the time indicated. Cells were lysed and the lysates were immunoprecipitated with trk antibody. Immunoprecipitates were either subjected to immunoblot analysis with the phosphotyrosine (Ptyr) monoclonal antibody 4G10 (Lanes 1-3), or were analyzed in kinase assays. […] Similar amounts of trk protein were present in each lane.

gp140trk = experiment: trk tyrosine phosphorylation in explanted embryonic dorsal root ganglia treated with NGF; type: cell-based, mouse; set-up: dose or concentration left out as unconfirmed
From the text: FIGS. 4A-B show NGF-dependent tyrosine phosphorylation of gp140trk in the human neuroblastoma cell lines LA-N-5, SY5Y, and dorsal root ganglia from mouse embryos. FIG. 4A, gp140trk was immunoprecipitated from untreated (-) or NGF treated (+) LA-N-5 cells (K. H. Sonnenfeld and D. N. Ishii, J. Neurosci. Res. 8:375-391 (1982)), SY5Y cells (K. H. Sonnenfeld and D. N. Ishii, (1982)), NR18 cells (M. A. Bothwell et al., Cell 21:857-866 (1980)), or PC12 cells. Immunoprecipitates were probed with P-tyr antibodies. The differences in trk protein mobilities are due to differences in glycosylation. FIG. 4B, Tyrosine phosphorylation of gp140trk in DRGs from 13.5 day or 14.5 day embryonic mice. […] Tyrosine phosphorylated gp140trk from NGF-treated (+) PC12 cells or untreated (-) PC12 cells is shown for comparison. Samples were normalized for cell protein. Molecular weight markers in kDa are indicated.
Cell lines were treated with 100 ng/ml NGF for 5 min and gp140trk immunoprecipitated as in FIG. 1. DRGs were prepared by dissection for 13.5 or 14.5 day mouse embryos. 100 DRG's were treated with NGF, washed, and subjected to Dounce homogenization in 1% NP40 lysis buffer. Lysates were immunoprecipitated with trk antibody and the trk proteins were analyzed by antiphosphotyrosine immunoblots. […]

Question: How did the “time to maximum levels of trk tyrosine phosphorylation” value (gp140^prototrk; 50 ng/ml NGF, 37° C.) turn out when “NGF: neurotrophic polypeptide factor, nerve growth factor; ligand of trk proto-oncogene receptor” was run?
Answer: The value was “five”.

Question: And the “stimulation of tyrosine phosphorylation of gp140^prototrk” value (gp140^prototrk; 32P-orthophosphate labelled, 50 ng/ml NGF for 5 min)?
Answer: Its value is 20 fold.

Question: What about the “half maximal tyrosine phosphorylation concentration” value (gp140^prototrk; 30 min at 37° C., dose response) of the same substance?
Answer: The value was 0.1 ng/mL.

Question: What about the “trk tyrosine phosphorylation after two days of treatment” value (gp140^prototrk; fully differentiated, two days of NGF) of the same substance?
Answer: Its value is “Residual phosphorylation was detected”.

Question: What about the “stimulation of tyrosine phosphorylation of gp140^prototrk in vivo and in vitro” value (p140^prototrk) of the same substance?
Answer: The value was “at least 10 fold”.

Question: And the “phosphorylation of trk protein in 13.5 day DRG” value (gp140trk; E13.5 mouse embryo DRG)?
Answer: The value was “not in two independent preparations”.

Question: What about the “phosphorylation of trk protein in 14.5 day DRG” value (gp140trk; E14.5 mouse embryo DRG) of the same substance?
Answer: Its value is “detectable”.
